Reference: paper PMC9198467 (The Journal of Biological Chemistry, 2022)

Molecular target: His-DnaB helicase (E. coli, UniProt P0ACB0 1-471)
Experiment: pull-down

His-DnaB helicase, sequence (P0ACB0 whole entry): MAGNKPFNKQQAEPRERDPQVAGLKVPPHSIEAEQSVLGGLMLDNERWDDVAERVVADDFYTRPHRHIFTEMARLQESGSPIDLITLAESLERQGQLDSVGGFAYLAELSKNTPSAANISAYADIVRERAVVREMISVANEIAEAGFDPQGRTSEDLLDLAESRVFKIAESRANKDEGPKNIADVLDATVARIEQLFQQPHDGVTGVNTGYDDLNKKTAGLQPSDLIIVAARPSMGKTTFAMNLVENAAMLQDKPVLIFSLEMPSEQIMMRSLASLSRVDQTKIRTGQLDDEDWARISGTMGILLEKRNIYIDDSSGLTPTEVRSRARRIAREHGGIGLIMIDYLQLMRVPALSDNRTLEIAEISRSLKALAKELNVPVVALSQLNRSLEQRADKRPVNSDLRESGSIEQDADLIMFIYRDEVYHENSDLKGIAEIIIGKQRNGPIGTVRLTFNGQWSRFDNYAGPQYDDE

binding result: binds
B1: Escherichia coli DnaA, ATP-bound form (ATP–DnaA), wild type (natural protein, E. coli, UniProt P03004 1-467, looked up)
chain: MSLSLWQQCLARLQDELPATEFSMWIRPLQAELSDNTLALYAPNRFVLDWVRDKYLNNINGLLTSFCGADAPQLRFEVGTKPVTQTPQAAVTSNVAAPAQVAQTQPQRAAPSTRSGWDNVPAPAEPTYRSNVNVKHTFDNFVEGKSNQLARAAARQVADNPGGAYNPLFLYGGTGLGKTHLLHAVGNGIMARKPNAKVVYMHSERFVQDMVKALQNNAIEEFKRYYRSVDALLIDDIQFFANKERSQEEFFHTFNALLEGNQQIILTSDRYPKEINGVEDRLKSRFGWGLTVAIEPPELETRVAILMKKADENDIRLPGEVAFFIAKRLRSNVRELEGALNRVIANANFTGRAITIDFVREALRDLLALQEKLVTIDNIQKTVAEYYKIKVADLLSKRRSRSVARPRQMAMALAKELTNHSLPEIGDAFGGRDHTTVLHACRKIEQLREESHDIKEDFSNLIRTLSS
